The record followed here is patent US20240261333A1, “NOVEL TARGETS FOR ENHANCING ANTI-TUMOR IMMUNITY” (THE BROAD INSTITUTE, INC., priority 2021, published 2024).

T1: B3GNT2 (Homo sapiens, UniProt Q9NY97)
T1 construct: The respective ORFs of candidate genes [CD274 (NM_014143), MCL1 (NM_021960), JUNB (NM_002229), and B3GNT2 (NM_006577)] were synthesized; expressed in transfected cells; host or cells: A375 melanoma cells (lentiviral ORF overexpression)
T1 sequence (Q9NY97 1-397): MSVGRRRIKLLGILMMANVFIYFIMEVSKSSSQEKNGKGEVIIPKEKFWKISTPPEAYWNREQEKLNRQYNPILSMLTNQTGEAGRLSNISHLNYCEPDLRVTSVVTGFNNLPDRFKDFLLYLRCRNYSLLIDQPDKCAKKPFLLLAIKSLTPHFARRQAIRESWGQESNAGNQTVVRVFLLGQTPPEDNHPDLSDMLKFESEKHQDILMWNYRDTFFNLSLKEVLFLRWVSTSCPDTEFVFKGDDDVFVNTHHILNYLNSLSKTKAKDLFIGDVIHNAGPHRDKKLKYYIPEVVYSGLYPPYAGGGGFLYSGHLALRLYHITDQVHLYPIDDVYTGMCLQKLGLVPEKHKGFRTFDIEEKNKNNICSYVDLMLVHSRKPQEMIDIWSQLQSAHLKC

B1: XPOT (protein)
chain: MDEQALLGLNPNADSDFRQRALAYFEQLKISPDAWQVCAEALAQRTYSDDHVKFFCFQVLEHQVKYKYSELTTVQQQLIRETLISWLQAQMLNPQPEKTFIRNKAAQVFALLFVTEYLTKWPKFFFDILSVVDLNPRGVDLYLRILMAIDSELVDRDVVHTSEEARRNTLIKDTMREQCIPNLVESWYQILQNYQFTNSEVTCQCLEVVGAYVSWIDLSLIANDRFINMLLGHMSIEVLREEACDCLFEVVNKGMDPVDKMKLVESLCQVLQSAGFFSIDQEEDVDFLARFSKLVNGMGQSLIVSWSKLIKNGDIKNAQEALQAIETKVALMLQLLIHEDDDISSNIIGFCYDYLHILKQLTVLSDQQKANVEAIMLAVMKKLTYDEEYNFENEGEDEAMFVEYRKQLKLLLDRLAQVSPELLLASVRRVFSSTLQNWQTTRFMEVEVAIRLLYMLAEALPVSHGAHFSGDVSKASALQDMMRTLVTSGVSSYQHTSVTLEFFETVVRYEKFFTVEPQHIPCVLMAFLDHRGLRHSSAKVRSRTAYLFSRFVKSLNKQMNPFIEDILNRIQDLLELSPPENGHQSLLSSDDQLFIYETAGVLIVNSEYPAERKQALMRNLLTPLMEKFKILLEKLMLAQDEERQASLADCLNHAVGFASRTSKAFSNKQTVKQCGCSEVYLDCLQTFLPALSCPLQKDILRSGVRTFLHRMIICLEEEVLPFIPSASEHMLKDCEAKDLQEFIPLINQITAKFKIQVSPFLQQMFMPLLHAIFEVLLRPAEENDQSAALEKQMLRRSYFAFLQTVTGSGMSEVIANQGAENVERVLVTVIQGAVEYPDPIAQKTCFIILSKLVELWGGKDGPVGFADFVYKHIVPACFLAPLKQTFDLADAQTVLALSECAVTLKTIHLKRGPECVQYLQQEYLPSLQVAPEIIQEFCQALQQPDAKVFKNYLKVFFQRAKP
B2: DDX17 (protein)
chain: MPTGFVAPILCVLLPSPTREAATVASATGDSASERESAAPAAAPTAEAPPPSVVTRPEPQALPSPAIRAPLPDLYPFGTMRGGGFGDRDRDRDRGGFGARGGGGLPPKKFGNPGERLRKKKWDLSELPKFEKNFYVEHPEVARLTPYEVDELRRKKEITVRGGDVCPKPVFAFHHANFPQYVMDVLMDQHFTEPTPIQCQGFPLALSGRDMVGIAQTGSGKTLAYLLPAIVHINHQPYLERGDGPICLVLAPTRELAQQVQQVADDYGKCSRLKSTCIYGGAPKGPQIRDLERGVEICIATPGRLIDFLESGKTNLRRCTYLVLDEADRMLDMGFEPQIRKIVDQIRPDRQTLMWSATWPKEVRQLAEDFLRDYTQINVGNLELSANHNILQIVDVCMESEKDHKLIQLMEEIMAEKENKTIIFVETKRRCDDLTRRMRRDGWPAMCIHGDKSQPERDWVLNEFRSGKAPILIATDVASRGLDVEDVKFVINYDYPNSSEDYVHRIGRTARSTNKGTAYTFFTPGNLKQARELIKVLEEANQAINPKLMQLVDHRGGGGGGGGRSRYRTTSSANNPNLMYQDECDRRLRGVKDGGRRDSASYRDRSETDRAGYANGSGYGSPNSAFGAQAGQYTYGQGTYGAAAYGTSSYTAQEYGAGTYGASSTTSTGRSSQSSSQQFSGIGRSGQQPQPLMSQQFAQPPGATNMIGYMGQTAYQYPPPPPPPPPSRK
B3: JUP (protein)
chain: MEVMNLMEQPIKVTEWQQTYTYDSGIHSGANTCVPSVSSKGIMEEDEACGRQYTLKKTTTYTQGVPPSQGDLEYQMSTTARAKRVREAMCPGVSGEDSSLLLATQVEGQATNLQRLAEPSQLLKSAIVHLINYQDDAELATRALPELTKLLNDEDPVVVTKAAMIVNQLSKKEASRRALMGSPQLVAAVVRTMQNTSDLDTARCTTSILHNLSHHREGLLAIFKSGGIPALVRMLSSPVESVLFYAITTLHNLLLYQEGAKMAVRLADGLQKMVPLLNKNNPKFLAITTDCLQLLAYGNQESKLIILANGGPQALVQIMRNYSYEKLLWTTSRVLKVLSVCPSNKPAIVEAGGMQALGKHLTSNSPRLVQNCLWTLRNLSDVATKQEGLESVLKILVNQLSVDDVNVLTCATGTLSNLTCNNSKNKTLVTQNSGVEALIHAILRAGDKDDITEPAVCALRHLTSRHPEAEMAQNSVRLNYGIPAIVKLLNQPNQWPLVKATIGLIRNLALCPANHAPLQEAAVIPRLVQLLVKAHQDAQRHVAAGTQQPYTDGVRMEEIVEGCTGALHILARDPMNRMEIFRLNTIPLFVQLLYSSVENIQRVAAGVLCELAQDKEAADAIDAEGASAPLMELLHSRNEGTATYAAAVLFRISEDKNPDYRKRVSVELTNSLFKHDPAAWEAAQSMIPINEPYGDDMDATYRPMYSSDVPLDPLEMHMDMDGDYPIDTYSDGLRPPYPTADHMLA
B4: DDX3X (protein)
chain: SHVAVENALGLDQQFAGLDLNSSDNQSGGSTASKGRYIPPHLRNREATKGFYDKDSSGWSSSKDKDAYSSFGSRSDSRGKSSFFSDRGSGSRGRFDDRGRSDYDGIGSRGDRSGFGKFERGGNSRWCDKSDEDDWSKPLPPSERLEQELFSGGNTGINFEKYDDIPVEATGNNCPPHIESFSDVEMGEIIMGNIELTRYTRPTPVQKHAIPIIKEKRDLMACAQTGSGKTAAFLLPILSQIYSDGPGEALRAMKENGRYGRRKQYPISLVLAPTRELAVQIYEEARKFSYRSRVRPCVVYGGADIGQQIRDLERGCHLLVATPGRLVDMMERGKIGLDFCKYLVLDEADRMLDMGFEPQIRRIVEQDTMPPKGVRHTMMFSATFPKEIQMLARDFLDEYIFLAVGRVGSTSENITQKVVWVEESDKRSFLLDLLNATGKDSLTLVFVETKKGADSLEDFLYHEGYACTSIHGDRSQRDREEALHQFRSGKSPILVATAVAARGLDISNVKHVINFDLPSDIEEYVHRIGRTGRVGNLGLATSFFNERNINITKDLLDLLVEAKQEVPSWLENMAYEHHYKGSSRGRSKSSRFSGGFGARDYRQSSGASSSSFSSSRASSSRSGGGGHGSSRGFGGGGYGGFYNSDGYGGNYNSQGVDWWGN
B5: P4HA2 (protein)
chain: EFFTSIGHMTDLIYAEKELVQSLKEYILVEEAKLSKIKSWANKMEALTSKSAADAEGYLAHPVNAYKLVKRLNTDWPALEDLVLQDSAAGFIANLSVQRQFFPTDEDEIGAAKALMRLQDTYRLDPGTISRGELPGTKYQAMLSVDDCFGMGRSAYNEGDYYHTVLWMEQVLKQLDAGEEATTTKSQVLDYLSYAVFQLGDLHRALELTRRLLSLDPSHERAGGNLRYFEQLLEEEREKTLTNQTEAELATPEGIYERPVDYLPERDVYESLCRGEGVKLTPRRQKRLFCRYHHGNRAPQLLIAPFKEEDEWDSPHIVRYYDVMSDEEIERIKEIAKPKLARATVRDPKTGVLTVASYRVSKSSWLEEDDDPVVARVNRRMQHITGLTVKTAELLQVANYGVGGQYEPHFDFSRNDERDTFKHLGTGNRVATFLNYMSDVEAGGATVFPDLGAAIWPKKGTAVFWYNLLRSGEGDYRTRHAACPVLVGCKWVSNKWFHERGQEFLRPCGSTEVD

The first test addresses T1, B3GNT2. The test is described as follows: Co-IP of FLAG-tagged B3GNT2 followed by mass spectrometry. The following applies: Co-IP followed by mass spectrometry of B3GNT2; C-term tag, FLAG pull-down. More on the design: C-term IgG / C-term flag: unit not given here. It is filed as cell-based. In short, it runs like this:
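FLAG-tagged B3GNT2 immunoprecipitated from cell lysate (HEPES, 1% Triton X-100, 150 mM NaCl) with anti-FLAG versus […], overnight at 4° C, then captured on Protein A/G magnetic beads for 4 h. Two biological replicates per condition. Peptides fractionated and analyzed by nano-LC on an Orbitrap Elite in data-dependent mode.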
Consider B1, for which the C-term flag was determined as 2.
As for B2, the C-term flag was determined as 30.
As to B3, the C-term flag stood at 43.
Same read-out and setting: to B4 belongs 23.
As for B5, the C-term flag is on record as 4.

Staying with this test, now noted: Co-IP followed by mass spectrometry of B3GNT2; C-term tag, IgG pull-down.
Take B1: the “C-term IgG” value is on record as 0.
Same read-out and setting: to B2 belongs 22.
For B3, the “C-term IgG” value was 36.
Take B4: the “C-term IgG” value stood at 15.
Still for that read-out and setting: as for B5, the figure is 0.

The test is the same for the next values; noted with them: Co-IP followed by mass spectrometry of B3GNT2; N-term tag, FLAG pull-down.
Regarding B1, the “N-term FLAG” value came out at 2.
On the same count and under the same terms, to B2 belongs 23; to B3, 47.
On the same count and under the same terms, as for B4, the figure is 18.
As to B5, the “N-term FLAG” value stood at 0.

The test is the same for the next values; noted with them: Co-IP followed by mass spectrometry of B3GNT2; N-term tag, IgG pull-down.
Take B1: the “N-term IgG” value is listed as 0.
Still for that read-out and setting: to B2 belongs 23; to B3, 39; to B4, 19.
On the same count and under the same terms, as for B5, the figure is 0.
